Results on one substance are retold here after US7314754B2, “Polynucleotide encoding the hOT7T175 G protein coupled receptor” (Takeda Pharmaceutical Company Limited, priority 1998, dated 2008).

No end group written: not given here.

The test has as its target T1, rOT7T175 (Rattus norvegicus, UniProt Q924U1).
T1 construct: expressed in transfected cells
Put plainly: Measurement of intracellular Ca ion concentration-increasing activity using FLIPR. In kind it is cell-based. The settings on record: rOT7T175-23 cells; final peptide concentration 1×10^−5 M to 1×10^−10 M. On the procedure:
The stable expression cell line rOT7T175 was obtained by transduction of expression plasmid pAK-rOT175 for animal cell into CHO/dhfr^− cells, using CellPhect Transfection Kit (Amersham Pharmacia Biotech, Inc.). First, […] of Buffer A (attached to CellPhect Transfection Kit) was added to […] of plasmid DNA dissolved in […] of distilled water followed by stirring. After the mixture was settled for 10 minutes, […] of Buffer B (attached to CellPhect Transfection Kit) was added to the mixture, which was vigorously stirred to form liposomes containing the DNA. Then 4×10^5 CHO/dhfr^− cells (obtained from ATCC) were inoculated on a 60 mm Petri dish. After culturing the cells in Ham's F-12 medium (Nissui Seiyaku Co., Ltd.) supplemented with 10% fetal bovine serum (BIO WHITTAKER, Inc.) at 37° C. for 2 days in 5% carbon dioxide gas, […] of the liposomes were dropwise added to the cells in the Petri dish. After culturing the cells at 37° C. for 6 hours in 5% carbon dioxide gas, the cells were washed twice with serum-free Ham's F-12 medium and 3 ml of 15% glycerol was added to the cells in the Petri dish followed by treatment for 2 minutes. […]
The intracellular Ca ion concentration-increasing activity of the synthetic peptides obtained in (1-1) described above in rOT7T175-23 and ETA24was determined, using FLIPR (Molecular Devices, Inc.). […]

T1 sequence (Q924U1 whole entry R383V): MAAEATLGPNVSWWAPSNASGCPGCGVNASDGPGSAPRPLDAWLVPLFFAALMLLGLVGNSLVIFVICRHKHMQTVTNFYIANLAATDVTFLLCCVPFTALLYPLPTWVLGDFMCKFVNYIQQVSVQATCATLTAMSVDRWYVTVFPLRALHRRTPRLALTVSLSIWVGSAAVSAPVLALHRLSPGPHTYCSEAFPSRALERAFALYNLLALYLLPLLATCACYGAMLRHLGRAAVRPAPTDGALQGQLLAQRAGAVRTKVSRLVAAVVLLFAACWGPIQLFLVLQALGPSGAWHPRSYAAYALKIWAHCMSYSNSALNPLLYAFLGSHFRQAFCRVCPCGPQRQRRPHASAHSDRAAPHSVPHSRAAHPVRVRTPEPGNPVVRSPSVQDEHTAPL

For “PEPTIDE (40-54): C-terminal peptide of PEPTIDE (1-54), residues 40-54, synthesized on p-methyl BHA resin (KDLPNYNWNSFGLRF-NH2)”, the “intracellular Ca ion concentration-increasing activity, comparison of dose response curves (FIG. 9)” value is given as “highest activity”.
